Laboratory results published in patent publication US20230357395A1 (MARENGO THERAPEUTICS, published 2023).

T1: Human NKp30, construct BKM0179 (human, UniProt O14931 19-135, limits assumed)
T1 construct: Immobilized on a CM5 chip via anti-mouse Fc antibody, so it likely carries a mouse Fc; also called Human Nkp30 (BKM0179)
T1 sequence (looked up): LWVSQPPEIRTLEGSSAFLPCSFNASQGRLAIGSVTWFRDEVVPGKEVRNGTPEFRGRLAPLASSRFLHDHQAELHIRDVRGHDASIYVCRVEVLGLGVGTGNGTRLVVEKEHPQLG


Legend:
[1] = target: T1, Human NKp30, construct BKM0179; test: SPR (BIAcore T200), human NKp30 BKM0179 captured via anti-mouse Fc on CM5, antibody injected 3.9-125 nM, 1:1 fit
Protocol: (§1) In this example, a series of exemplary anti-NKp30 antibody molecules were analyzed for their binding affinity for NKp30. Briefly, surface plasmon resonance (SPR) measurements were performed by using the BIAcore T200. Human NKp30 (BKM0179) was immobilized on a CM5 chip via anti-mouse Fc antibody to a response of 50 RU. […] The data was fit using a 1:1 binding model.

[2] = target: T2, human TRBC2 (hTRBC2), construct BIM0445 (human, UniProt A0A5B9 1-129, limits assumed); test: SPR (BIAcore T200), antibody captured via anti-human Fc
T2 construct: also called BIM0445 (hTRBC2)
T2 sequence (A0A5B9 1-129 limits assumed): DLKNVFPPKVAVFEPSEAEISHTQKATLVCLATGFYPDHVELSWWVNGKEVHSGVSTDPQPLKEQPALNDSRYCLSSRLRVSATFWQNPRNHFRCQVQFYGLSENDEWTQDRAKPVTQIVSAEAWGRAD

[3] = target: T3, human TRBC1 (hTRBC1), construct BIM0443 (human, UniProt P01850 1-129, limits assumed); test: SPR (BIAcore T200), antibody captured via anti-human Fc on CM5, hTRBC1 BIM0443 injected 15.6-500 nM, 1:1 fit
T3 construct: also called Human TRBC1 (BIM0443); BIM0443 (hTRBC1)
T3 sequence (P01850 1-129 limits assumed): as the sequence (A0A5B9 1-129 limits assumed) above, with K3N, N4K, K9E, Y36F counted along it
Protocol: as §1, with “anti-TRBC1” for “anti-NKp30”, “TRBC1.” for “NKp30.”, “Each of the exemplary anti-TRBC1 antibody constructs” for “Human NKp30 (BKM0179)”, “anti-human” for “anti-mouse”

Row | Kd [1] [nM] | binding result [2] | Kd [3] [nM] | Binder
1 | 1.48 | – | – | BJM1078 (BJM0407 Parental) (antibody, V domains shown) VH: EIQLLESGGGLVQPGGSLRLSCAVSGFSITTTGYHWNWVRQAPGKGLEWVGYIYSSGSTSYNPSLKSRFTISRDTSKNTFYLQMNSLRAEDTAVYYCARGDWHYFDYWGQGTMVTVSS VL: SSETTQPPSVSVSPGQTASITCSGEKLSDKYVHWYQQKPGQSPVMVIYENDRRPSGIPERFSGSNSGNTATLTISGTQAMDEADYFCQFWDSTNSAVFGGGTQLTVL
2 | 1.26 | – | – | BJM1079 (BJM0411 Parental) (antibody, V domains shown) VH: EIQLLESGGGLVQPGGSLRLSCAVSGFSITTTGYHWNWVRQAPGKGLEWVGYIYSSGSTSYNPSLKSRFTISRDTSKNTFYLQMNSLRAEDTAVYYCARGDWHYFDYWGQGTMVTVSS VL: DSVTTQSPLSLPVTLGQPASISCSGEKLSDKYVHWYQQRPGQSPRMLIYENDRRPSGVPDRFSGSNSGNDATLKISRVEAEDVGVYFCQFWDSTNSAVFGGGTKVEIK
3 | – | no binding | 75 | BJM0578 (bivalent) (antibody, V domains shown, Bivalent construct with a human Fc) VH: QVQLVQSGAEVKKPGSSVKVSCKASGYTFTGYVMHWVRQAPGQGLEWMGFIIPIFGTANYAQKFQGRVTITSDKSTTTAYMELSSLRSEDTAVYYCARGAGYNFDGAYRFFDFWGQGTLVTVSS VL: DVVMTQSPLSLPVTLGQPASISCRSSQRLVHSNGNTYLHWYQQRPGQSPRLLIYRVSNRFPGVPDRFSGSGSGTDFTLKISRVEAEDVGVYFCSQSTHVPYTFGGGTKVEIK
4 | – | no binding | 180 | BKM0194 (single arm) (antibody, V domains shown, Single arm anti-TRBC1 construct with human Fc; also called N28G) VH: QVQLVQSGAEVKKPGSSVKVSCKASGYTFTGYVMHWVRQAPGQGLEWMGFIIPIFGTANYAQKFQGRVTITSDKSTTTAYMELSSLRSEDTAVYYCARGAGYNFDGAYRFFDFWGQGTLVTVSS VL: DVVMTQSPLSLPVTLGQPASISCRSSQRLVHSGGNTYLHWYQQRPGQSPRLLIYRVSNRFPGVPDRFSGSGSGTDFTLKISRVEAEDVGVYFCSQSTHVPYTFGGGTKVEIK
5 | – | no binding | 75 | BKM0191 (single arm) (antibody, V domains shown, Single arm anti-TRBC1 construct with human Fc; also called G29A) VH: QVQLVQSGAEVKKPGSSVKVSCKASGYTFTGYVMHWVRQAPGQGLEWMGFIIPIFGTANYAQKFQGRVTITSDKSTTTAYMELSSLRSEDTAVYYCARGAGYNFDGAYRFFDFWGQGTLVTVSS VL: DVVMTQSPLSLPVTLGQPASISCRSSQRLVHSNANTYLHWYQQRPGQSPRLLIYRVSNRFPGVPDRFSGSGSGTDFTLKISRVEAEDVGVYFCSQSTHVPYTFGGGTKVEIK
6 | – | no binding | 317 | BKM0195 (single arm) (antibody, V domains shown, Single arm anti-TRBC1 construct with human Fc; also called N30S) VH: QVQLVQSGAEVKKPGSSVKVSCKASGYTFTGYVMHWVRQAPGQGLEWMGFIIPIFGTANYAQKFQGRVTITSDKSTTTAYMELSSLRSEDTAVYYCARGAGYNFDGAYRFFDFWGQGTLVTVSS VL: DVVMTQSPLSLPVTLGQPASISCRSSQRLVHSNGSTYLHWYQQRPGQSPRLLIYRVSNRFPGVPDRFSGSGSGTDFTLKISRVEAEDVGVYFCSQSTHVPYTFGGGTKVEIK
7 | – | no binding | 10 | BIM0460 (bivalent) (antibody, V domains shown, Bivalent construct with a human Fc (captured via anti-human Fc antibody)) VH: QVQLVQSGAEVKKPGSSVKVSCKASGYTFTGYVMHWVRQAPGQGLEWMGFINPYNDDIQSNERFRGRVTITSDKSTTTAYMELSSLRSEDTAVYYCARGAGYNFDGAYRFFDFWGQGTLVTVSS VL: DVVMTQSPLSLPVTLGQPASISCRSSQRLVHSNGNTYLHWYQQRPGQSPRLLIYRVSNRFPGVPDRFSGSGSGTDFTLKISRVEAEDVGVYFCSQSTHVPYTFGGGTKVEIK
8 | – | no binding | 138 | BKM0192 (single arm) (antibody, V domains shown, Single arm anti-TRBC1 construct with human Fc; also called T31A) VH: QVQLVQSGAEVKKPGSSVKVSCKASGYTFTGYVMHWVRQAPGQGLEWMGFIIPIFGTANYAQKFQGRVTITSDKSTTTAYMELSSLRSEDTAVYYCARGAGYNFDGAYRFFDFWGQGTLVTVSS VL: DVVMTQSPLSLPVTLGQPASISCRSSQRLVHSNGNAYLHWYQQRPGQSPRLLIYRVSNRFPGVPDRFSGSGSGTDFTLKISRVEAEDVGVYFCSQSTHVPYTFGGGTKVEIK
9 | – | no binding | 690 | BKM0196 (single arm) (antibody, V domains shown, Single arm anti-TRBC1 construct with human Fc; also called N28G N30S) VH: QVQLVQSGAEVKKPGSSVKVSCKASGYTFTGYVMHWVRQAPGQGLEWMGFIIPIFGTANYAQKFQGRVTITSDKSTTTAYMELSSLRSEDTAVYYCARGAGYNFDGAYRFFDFWGQGTLVTVSS VL: DVVMTQSPLSLPVTLGQPASISCRSSQRLVHSGGSTYLHWYQQRPGQSPRLLIYRVSNRFPGVPDRFSGSGSGTDFTLKISRVEAEDVGVYFCSQSTHVPYTFGGGTKVEIK
10 | – | no binding | 360 | BKM0193 (single arm) (antibody, V domains shown, Single arm anti-TRBC1 construct with human Fc; also called G29A T31A) VH: QVQLVQSGAEVKKPGSSVKVSCKASGYTFTGYVMHWVRQAPGQGLEWMGFIIPIFGTANYAQKFQGRVTITSDKSTTTAYMELSSLRSEDTAVYYCARGAGYNFDGAYRFFDFWGQGTLVTVSS VL: DVVMTQSPLSLPVTLGQPASISCRSSQRLVHSNANAYLHWYQQRPGQSPRLLIYRVSNRFPGVPDRFSGSGSGTDFTLKISRVEAEDVGVYFCSQSTHVPYTFGGGTKVEIK
11 | 3.3 | – | – | BKM0140 (scFv, also called BJM0407 VL-D92A) scFv: EIQLLESGGGLVQPGGSLRLSCAVSGFSITTTGYHWNWVRQAPGKGLEWVGYIYSSGSTSYNPSLKSRFTISRDTSKNTFYLQMNSLRAEDTAVYYCARGDWHYFDYWGQGTMVTVSSGGGGSGGGGSGGGGSGGGGSSSETTQPPSVSVSPGQTASITCSGEKLSDKYVHWYQQKPGQSPVMVIYENDRRPSGIPERFSGSNSGNTATLTISGTQAMDEADYFCQFWASTNSAVFGGGTQLTVL
12 | 1.45 | – | – | BKM0143 (scFv, also called BJM0407 VH-N60A) scFv: EIQLLESGGGLVQPGGSLRLSCAVSGFSITTTGYHWNWVRQAPGKGLEWVGYIYSSGSTSYAPSLKSRFTISRDTSKNTFYLQMNSLRAEDTAVYYCARGDWHYFDYWGQGTMVTVSSGGGGSGGGGSGGGGSGGGGSSSETTQPPSVSVSPGQTASITCSGEKLSDKYVHWYQQKPGQSPVMVIYENDRRPSGIPERFSGSNSGNTATLTISGTQAMDEADYFCQFWDSTNSAVFGGGTQLTVL
13 | 4.2 | – | – | BKM0145 (scFv, also called BJM0407 VH-N60A-VL-D92A-N95A) scFv: EIQLLESGGGLVQPGGSLRLSCAVSGFSITTTGYHWNWVRQAPGKGLEWVGYIYSSGSTSYAPSLKSRFTISRDTSKNTFYLQMNSLRAEDTAVYYCARGDWHYFDYWGQGTMVTVSSGGGGSGGGGSGGGGSGGGGSSSETTQPPSVSVSPGQTASITCSGEKLSDKYVHWYQQKPGQSPVMVIYENDRRPSGIPERFSGSNSGNTATLTISGTQAMDEADYFCQFWASTASAVFGGGTQLTVL
14 | 3 | – | – | BKM0141 (scFv, also called BJM0407 VL-N95A) scFv: EIQLLESGGGLVQPGGSLRLSCAVSGFSITTTGYHWNWVRQAPGKGLEWVGYIYSSGSTSYNPSLKSRFTISRDTSKNTFYLQMNSLRAEDTAVYYCARGDWHYFDYWGQGTMVTVSSGGGGSGGGGSGGGGSGGGGSSSETTQPPSVSVSPGQTASITCSGEKLSDKYVHWYQQKPGQSPVMVIYENDRRPSGIPERFSGSNSGNTATLTISGTQAMDEADYFCQFWDSTASAVFGGGTQLTVL
15 | 3.2 | – | – | BKM0138 (scFv, also called BJM0411 VL-N95A) scFv: EIQLLESGGGLVQPGGSLRLSCAVSGFSITTTGYHWNWVRQAPGKGLEWVGYIYSSGSTSYNPSLKSRFTISRDTSKNTFYLQMNSLRAEDTAVYYCARGDWHYFDYWGQGTMVTVSSGGGGSGGGGSGGGGSGGGGSDSVTTQSPLSLPVTLGQPASISCSGEKLSDKYVHWYQQRPGQSPRMLIYENDRRPSGVPDRFSGSNSGNDATLKISRVEAEDVGVYFCQFWDSTASAVFGGGTKVEIK
16 | 6.4 | – | – | BKM0144 (scFv, also called BJM0411 VH-N60A-VL-D92A-N95A) scFv: EIQLLESGGGLVQPGGSLRLSCAVSGFSITTTGYHWNWVRQAPGKGLEWVGYIYSSGSTSYAPSLKSRFTISRDTSKNTFYLQMNSLRAEDTAVYYCARGDWHYFDYWGQGTMVTVSSGGGGSGGGGSGGGGSGGGGSDSVTTQSPLSLPVTLGQPASISCSGEKLSDKYVHWYQQRPGQSPRMLIYENDRRPSGVPDRFSGSNSGNDATLKISRVEAEDVGVYFCQFWASTASAVFGGGTKVEIK
17 | 1.28 | – | – | BKM0142 (scFv, also called BJM0411 VH-N60A) scFv: EIQLLESGGGLVQPGGSLRLSCAVSGFSITTTGYHWNWVRQAPGKGLEWVGYIYSSGSTSYAPSLKSRFTISRDTSKNTFYLQMNSLRAEDTAVYYCARGDWHYFDYWGQGTMVTVSSGGGGSGGGGSGGGGSGGGGSDSVTTQSPLSLPVTLGQPASISCSGEKLSDKYVHWYQQRPGQSPRMLIYENDRRPSGVPDRFSGSNSGNDATLKISRVEAEDVGVYFCQFWDSTNSAVFGGGTKVEIK
18 | 3.2 | – | – | BKM0139 (scFv, also called BJM0411 VL-D92A) scFv: EIQLLESGGGLVQPGGSLRLSCAVSGFSITTTGYHWNWVRQAPGKGLEWVGYIYSSGSTSYNPSLKSRFTISRDTSKNTFYLQMNSLRAEDTAVYYCARGDWHYFDYWGQGTMVTVSSGGGGSGGGGSGGGGSGGGGSDSVTTQSPLSLPVTLGQPASISCSGEKLSDKYVHWYQQRPGQSPRMLIYENDRRPSGVPDRFSGSNSGNDATLKISRVEAEDVGVYFCQFWASTNSAVFGGGTKVEIK
